Measured values: PMC4773420 (Nature Communications, 2016)
Values belong to the binder of their own block, whether it stands above or below them.

Assays:
6His-PABPC1(1-190) = 6His-PABPC1(1-190) (human, UniProt P11940 1-190); test: EMSA; 100 nM RNA; complete shift at 7 pmol protein per 1 pmol RNA; EMSA: 100 nM 5'-fluorescein RNA, native PAGE; EMSA buffer not in the material (deadenylation assays: 20 mM HEPES-KOH pH 8.0, 100 mM KCl, 0.5 mM DTT, 0.1% Igepal)
6His-PABPC1(FL) = 6His-PABPC1(FL) (human, UniProt P11940 1-636); test: EMSA; 100 nM RNA; complete shift at 7 pmol protein per 1 pmol RNA; multiple PABPC1 molecules bound; EMSA: 100 nM 5'-fluorescein RNA, native PAGE; EMSA buffer not in the material (deadenylation assays: 20 mM HEPES-KOH pH 8.0, 100 mM KCl, 0.5 mM DTT, 0.1% Igepal)
Chain of 6His-PABPC1(FL) (P11940 whole entry): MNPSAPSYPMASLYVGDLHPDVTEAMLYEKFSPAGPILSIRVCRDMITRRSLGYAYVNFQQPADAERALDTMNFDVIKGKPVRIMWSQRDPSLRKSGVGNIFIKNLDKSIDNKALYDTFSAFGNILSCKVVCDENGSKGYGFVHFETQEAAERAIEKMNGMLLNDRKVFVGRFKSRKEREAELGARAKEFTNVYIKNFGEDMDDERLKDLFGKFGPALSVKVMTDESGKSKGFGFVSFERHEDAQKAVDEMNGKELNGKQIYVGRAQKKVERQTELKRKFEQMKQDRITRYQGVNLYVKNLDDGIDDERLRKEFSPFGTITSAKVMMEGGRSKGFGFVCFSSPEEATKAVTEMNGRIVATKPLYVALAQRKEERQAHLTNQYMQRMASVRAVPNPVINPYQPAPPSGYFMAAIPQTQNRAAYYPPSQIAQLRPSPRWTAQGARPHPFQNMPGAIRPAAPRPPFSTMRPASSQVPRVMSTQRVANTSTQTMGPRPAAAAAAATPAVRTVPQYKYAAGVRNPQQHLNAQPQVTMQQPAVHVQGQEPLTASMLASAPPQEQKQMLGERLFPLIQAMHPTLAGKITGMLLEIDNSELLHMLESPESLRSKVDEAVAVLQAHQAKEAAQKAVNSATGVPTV

6His-PABPC1(1–190) = target: T1, 6His-PABPC1(1–190) (human, UniProt P11940 1-190); test: AUC; analytical ultracentrifugation of BTG2(APRO) (GST removed) and 6His-PABPC1(1–190), both purified to homogeneity; no RNA (Supplementary Fig. 2); details: both partners purified
T1 construct: PABPC1, human, RRM domains 1 and 2, amino acids 1-190; also called 6His-tagged PABPC1 RRM domains 1 and 2; first two RRMs of PABPC1; source: E. coli BL21-CodonPlus; co-expressed, in lysate (pull-down); purified (HisTrap FF crude, Superdex 75)
T1 sequence (P11940 1-190): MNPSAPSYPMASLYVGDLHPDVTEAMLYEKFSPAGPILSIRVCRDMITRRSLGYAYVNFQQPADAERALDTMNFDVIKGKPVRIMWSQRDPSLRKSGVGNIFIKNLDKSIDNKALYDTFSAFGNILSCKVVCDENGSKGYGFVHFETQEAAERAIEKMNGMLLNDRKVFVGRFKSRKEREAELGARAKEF

Chain of 6His-PABPC1(1-190) (P11940 1-190): as above

B1: 5'Fluo-poly(A)75 (ssRNA)
RNA: AAAAAAAAAAAAAAAAAAAAAAAAAAAAAAAAAAAAAAAAAAAAAAAAAAAAAAAAAAAAAAAAAAAAAAAAAAA
binding result (6His-PABPC1(1-190)): binds | binding result (6His-PABPC1(FL)): binds

Kd (6His-PABPC1(1–190)): ~5 µM | stoichiometry N (6His-PABPC1(1–190)): 1
B2: BTG2(APRO) (domain or fragment, human, UniProt P78543 1-126, looked up)
chain: MSHGKGTDMLPEIAAAVGFLSSLLRTRGCVSEQRLKVFSGALQEALTEHYKHHWFPEKPSKGSGYRCIRINHKMDPIISRVASQIGLSQPQLHQLLPSELTLWVDPYEVSYRIGEDGSICVLYEEA
notes: BTG2, human, APRO domain; also called BTG2 APRO domain, GST removed; source: E. coli BL21-CodonPlus, purified (GSTrap FF, thrombin cleavage, Superdex 75)
